Conditions in all cases: remark: other sources report otherwise
Experiment [1] addresses recombinant soluble homotrimeric HA of H1N1 A/California/04/09 (Influenza A virus A/California/04/2009(H1N1)). The experiment can be described thus: ProteOn biosensor, HA-CA captured on anti-V5 surface, Fab in solution.
Experiment [2] deals with T1, recombinant soluble homotrimeric HA of A/Netherlands/219/03 (H7N7) (Influenza A virus A/Netherlands/219/03(H7N7)).
The target of experiment [3] is recombinant soluble homotrimeric HA of A/chicken/Vietnam/NCVD-016/08 (H5N1) (Influenza A virus A/chicken/Vietnam/NCVD-016/2008(H5N1)).
Experiment [4] addresses T2, recombinant soluble homotrimeric HA of A/duck/Yangzhou/02/05 (H8N4) (Influenza A virus A/duck/Yangzhou/02/2005(H8N4)).
The target of experiment [5] is T3, recombinant soluble homotrimeric HA of A/Anhui/1/05 (H5N1) (Influenza A virus A/Anhui/1/2005(H5N1)).
The target of experiment [6] is T4, recombinant soluble homotrimeric HA of A/California/4/09 (H1N1) (Influenza A virus A/California/04/2009(H1N1)).
The target of experiment [7] is T5, recombinant soluble homotrimeric HA of A/Egypt/3300-NAMRU3/08 (H5N1) (Influenza A virus A/Egypt/3300-NAMRU3/2008(H5N1)).
In experiment [8] the target is recombinant soluble homotrimeric HA of A/Vietnam/1203/04 (H5N1) (Influenza A virus A/VietNam/1203/2004(H5N1)).
The target in experiment [9] is recombinant soluble homotrimeric HA of A/Solomon Islands/3/06 (H1N1) (Influenza A virus A/Solomon Islands/3/2006(H1N1)).
The target in experiment [10] is T6, recombinant soluble homotrimeric HA of A/South Carolina/1/18 (H1N1) (Influenza A virus A/South Carolina/1/18 (H1N1)).
Experiment [11] concerns the target recombinant soluble homotrimeric HA of A/swine/Ontario/01911-2/99 (H4N6) (Influenza A virus A/Swine/Ontario/01911-2/99 (H4N6)).
Experiment [12] concerns the target recombinant soluble homotrimeric HA of A/Hong Kong/156/97 (H5N1) (Influenza A virus A/Hong Kong/156/97 (H5N1)).
Experiment [13] concerns the target recombinant soluble homotrimeric HA of A/Hong Kong/1073/99 (H9N2) (Influenza A virus A/Hong Kong/1073/99 (H9N2)).
In experiment [14] the target is recombinant soluble homotrimeric HA of A/Japan/305/57 (H2N2) (Influenza A virus A/Japan/305/1957(H2N2)).
Experiment [15] concerns the target T7, recombinant soluble homotrimeric HA of A/northern shoveler/California/HKWF115/07 (H6) (Influenza A virus A/northern shoveler/California/HKWF115/2007(H6N1)).
Experiment [16] addresses T8, recombinant soluble homotrimeric HA of A/Hong Kong/2108/03 (H9N2) (Influenza A virus A/HK/2108/2003(H9N2)).
Experiment [17] concerns the target T9, recombinant soluble homotrimeric HA of A/Indonesia/5/05 (H5N1) (Influenza A virus A/Indonesia/5/2005(H5N1)).
In experiment [18] the target is T10, recombinant soluble homotrimeric HA of A/Wisconsin/67/05 (H3N2) (Influenza A virus A/Wisconsin/67/2005(H3N2)). Briefly: HA microarray, BCC supernatant.
Experiment [19] addresses T2, recombinant soluble homotrimeric HA of …. The experiment can be described thus: HA microarray, BCC supernatant.
Experiment [20] concerns the target T3, recombinant soluble homotrimeric HA of …. Briefly: HA microarray, BCC supernatant.
Experiment [21] concerns the target T7, recombinant soluble homotrimeric HA of …. Briefly: HA microarray, BCC supernatant.
Experiment [22] addresses T10, recombinant soluble homotrimeric HA of …. Briefly: trimeric HA microarray, transfection supernatant set 3.
Experiment [23] addresses T1, recombinant soluble homotrimeric HA of …. The experiment is described as above.
Experiment [24] concerns the target T2, recombinant soluble homotrimeric HA of …. The description is as above.
The target of experiment [25] is T3, recombinant soluble homotrimeric HA of …. The description is as above.
In experiment [26] the target is T4, recombinant soluble homotrimeric HA of …. The description is as above.
In experiment [27] the target is T5, recombinant soluble homotrimeric HA of …. Described as above.
The target of experiment [28] is T6, recombinant soluble homotrimeric HA of …. The experiment is described as above.
Experiment [29] has as its target T8, recombinant soluble homotrimeric HA of …. The description is as above.
The target of experiment [30] is T9, recombinant soluble homotrimeric HA of …. Described as above.
Experiment [31] concerns the target recombinant homotrimeric HA A/northern shoveler/California/HKWF115/07 H6N4 (Influenza A virus A/northern shoveler/California/HKWF115/2007(H6N1)). The experiment can be described thus: protein microarray, purified IgG, trimeric HA.
Experiment [32] concerns the target recombinant homotrimeric HA A/Egypt/3300-NAMRU3/08 H5N1 (Influenza A virus A/Egypt/3300-NAMRU3/2008(H5N1)). The experiment can be described thus: protein microarray, purified IgG, trimeric HA.
Experiment [33] addresses recombinant homotrimeric HA A/Wisconsin/67/05 H3N2 (Influenza A virus A/Wisconsin/67/2005(H3N2)). Briefly: protein microarray, purified IgG, trimeric HA.
Experiment [34] has as its target recombinant homotrimeric HA A/Anhui/1/05 H5N1 (Influenza A virus A/Anhui/1/2005(H5N1)). The experiment can be described thus: protein microarray, purified IgG, trimeric HA.
Experiment [35] concerns the target recombinant homotrimeric HA A/Hong Kong/156/97 H5N1 (Influenza A virus A/Hong Kong/156/97 (H5N1)). Briefly: protein microarray, purified IgG, trimeric HA.
The target of experiment [36] is recombinant homotrimeric HA A/Netherlands/219/03 H7N7 (Influenza A virus A/Netherlands/219/03(H7N7)). The experiment can be described thus: protein microarray, purified IgG, trimeric HA.
Experiment [37] concerns the target recombinant homotrimeric HA A/Vietnam/1203/04 H5N1 (Influenza A virus A/VietNam/1203/2004(H5N1)). The experiment can be described thus: protein microarray, purified IgG, trimeric HA.
Experiment [38] has as its target recombinant homotrimeric HA A/Japan/305/57 H2N2 (Influenza A virus A/Japan/305/1957(H2N2)). The experiment can be described thus: protein microarray, purified IgG, trimeric HA.
In experiment [39] the target is recombinant homotrimeric HA A/Indonesia/5/05 H5N1 (Influenza A virus A/Indonesia/5/2005(H5N1)). Briefly: protein microarray, purified IgG, trimeric HA.
For experiment [40], the target named is recombinant homotrimeric HA A/swine/Ontario/01911-2/99 H4N6 (Influenza A virus A/Swine/Ontario/01911-2/99 (H4N6)). The experiment can be described thus: protein microarray, purified IgG, trimeric HA.
Experiment [41] deals with recombinant homotrimeric HA A/South Carolina/1/18 H1N1 (Influenza A virus A/South Carolina/1/18 (H1N1)). The experiment can be described thus: protein microarray, purified IgG, trimeric HA.
The target of experiment [42] is recombinant homotrimeric HA A/duck/Yangzhou/02/05 H8N4 (Influenza A virus A/duck/Yangzhou/02/2005(H8N4)). Briefly: protein microarray, purified IgG, trimeric HA.
For experiment [43], the target named is recombinant homotrimeric HA A/chicken/Vietnam/NCVD-016/08 H5N1 (Influenza A virus A/chicken/Vietnam/NCVD-016/2008(H5N1)). Briefly: protein microarray, purified IgG, trimeric HA.

Where “and” joins values, the source holds several entries; their conditions need not be identical. Identical values can stand only once. Like-named read-outs stand apart in the source and are kept apart here.

B1: Fab fragment of TCN-522 (Fab, V domains shown)
VH: QVQLQQWGAGLLKPSETLSLTCTVSGGSLTDYSWNWIRQPPGKGLEWIGDTLHNGYTNYNPSLRGRVSISIDTSKNQVSLRLTSVTAADTALYYCARGSGGYGGFDYFGKLRTWDFWGQGTLVTVSS
VL: DIQLTQSPSSLSASVGDRVTITCRASQGIRNDLGWYQQKPGNAPKRLIFGASSLQSGVPSRFSGSGSGTEFTLTISSLQPEDFATYYCLQHNSYPYTFGQGTKLEIK
Consider B1, for which, in experiment [1], the fold slower on-rate (ka) than the other Fabs is 5 fold and 8 fold.

B2: TCN-564 (5256_A17b) (antibody, V domains shown)
VH: QVQLVQSGADVKKPGSSVTVSCKASGGSFSNYGINWVRQAPGQGLEWMGGIIPLINAPNYAPKFQGRVTITADMFSNIVSLQLTSLRTDDTAVYYCARRKMTTAIDYWGQGTLVTVSS
VL: QPVLSQPPSASASLGASVTLTCTLSSGFDNYQVAWYQQRPGKGPRFVMRVGNGGNVASKGDGIPDRFSVSGSGLNRYLTIKNIQEDDESDYYCGADHGSGNNFVSPYVFGGGTKLTVL
On to B2, for which the Trimeric HA Binding: RLU was found to be 1410 RLU in [2]; 5860 RLU in experiment [3]; 369 RLU in [4]; 4260 RLU in experiment [5]; 27500 RLU in [6]; 19900 RLU in experiment [7]. Moreover, the Trimeric HA Binding: RLU in [8] came out at 25400 RLU; in experiment [9], 8570 RLU; in experiment [10] it was 15100 RLU; in experiment [11], 251 RLU; in [12], 18100 RLU; in experiment [13], 9470 RLU. Further, the Trimeric HA Binding: RLU is 20200 RLU in [14], 16000 RLU in experiment [15], 272 RLU in experiment [16] and 26300 RLU in experiment [17].

B3: TCN-531 (5091_H13) (antibody, V domains shown)
VH: EVQLVESGGDLVQPGRSLKLSCTGSGFTFGDYGVTWVRQAPGKGLEWVGFIRTRPWGGTADTAASVKGRFTISRDDSKSLAYLQMNSLKTEDTAVYYCCRDAPPNVEVASMTNWYFDLWGRGTLVTVSS
VL: DIQLTQSPSSLSASVGDRVTITCRASQGILNCLAWYQQKPGKVPNLLMYAASTLQSGVPSRFSGSGFGTDFTLTISSLQPEDVATYYCQTYGGVSTFGGGTKVEIR
With B3, the Trimeric HA Binding: RLU in experiment [18] came out at 7090 RLU; in experiment [19], 3120 RLU; in experiment [20] it was 3610 RLU; in experiment [21], 43900 RLU; in experiment [22] it was 4160 RLU; in experiment [23], 384 RLU. Moreover, the Trimeric HA Binding: RLU in [24] came out at 3220 RLU; in [25], 76 RLU; in experiment [26], 2830 RLU; in experiment [27], 363 RLU; in [28], 1560 RLU; in experiment [29] it was 158 RLU. Also, the Trimeric HA Binding: RLU in experiment [30] was found to be 54 RLU; in [31] it was 45 RLU; in experiment [32], 2810 RLU; in experiment [33], 20600 RLU; in experiment [34] it was 4960 RLU; in [35] it was 259 RLU. For the same molecule, the Trimeric HA Binding: RLU in experiment [36] is 170 RLU; in experiment [37], 488 RLU; in experiment [38], 441 RLU; in experiment [39] it was 84 RLU; in experiment [40] it was 84 RLU; in experiment [41], 56 RLU. Besides, the Trimeric HA Binding: RLU in [42] turned out to be 112 RLU; in [43], 124 RLU.
